Laboratory results reported in paper PMC3481545 (Biochemistry, 2012).
Values belong to the binder of their own block, whether it stands above or below them.

B2: human recombinant BMPR-II ECD, wild type (domain or fragment, UniProt Q13873 26-150, looked up)
chain: ASQNQERLCAFKDPYQQDLGIGESRISHENGTILCSKGSTCYGLWEKSKGDINLVKQGCWSHIGDPQECHYEECVVTTTPPSIQNGTYRFCCCSTDLCNVNFTENFPPPDTTPLSPPHSFNRDET
B3: GDF-5 (ligand, UniProt P43026 382-501, looked up)
chain: APLATRQGKRPSKNLKARCSRKALHVNFKDMGWDDWIIAPLEYEAFHCEGLCEFPLRSHLEPTNHAVIQTLMNSMDPESTPPTCCVPTRLSPISILFIDSANNVVYKQYEDMVVESCGCR
B4: BMPR-II ECD G47N (domain or fragment, human, UniProt Q13873 26-150, looked up)
chain: ASQNQERLCAFKDPYQQDLGINESRISHENGTILCSKGSTCYGLWEKSKGDINLVKQGCWSHIGDPQECHYEECVVTTTPPSIQNGTYRFCCCSTDLCNVNFTENFPPPDTTPLSPPHSFNRDET
B5: BMPR-II ECD S107P (domain or fragment, human, UniProt Q13873 26-150, looked up)
chain: ASQNQERLCAFKDPYQQDLGIGESRISHENGTILCSKGSTCYGLWEKSKGDINLVKQGCWSHIGDPQECHYEECVVTTTPPPIQNGTYRFCCCSTDLCNVNFTENFPPPDTTPLSPPHSFNRDET
B6: BMPR-II ECD Y40R (domain or fragment, human, UniProt Q13873 26-150, looked up)
chain: ASQNQERLCAFKDPRQQDLGIGESRISHENGTILCSKGSTCYGLWEKSKGDINLVKQGCWSHIGDPQECHYEECVVTTTPPSIQNGTYRFCCCSTDLCNVNFTENFPPPDTTPLSPPHSFNRDET
B7: BMPR-II ECD Y40G (domain or fragment, human, UniProt Q13873 26-150, looked up)
chain: ASQNQERLCAFKDPGQQDLGIGESRISHENGTILCSKGSTCYGLWEKSKGDINLVKQGCWSHIGDPQECHYEECVVTTTPPSIQNGTYRFCCCSTDLCNVNFTENFPPPDTTPLSPPHSFNRDET
B8: BMPR-II ECD Y40Q (domain or fragment, human, UniProt Q13873 26-150, looked up)
chain: ASQNQERLCAFKDPQQQDLGIGESRISHENGTILCSKGSTCYGLWEKSKGDINLVKQGCWSHIGDPQECHYEECVVTTTPPSIQNGTYRFCCCSTDLCNVNFTENFPPPDTTPLSPPHSFNRDET
B9: BMPR-II ECD Y40P (domain or fragment, human, UniProt Q13873 26-150, looked up)
chain: ASQNQERLCAFKDPPQQDLGIGESRISHENGTILCSKGSTCYGLWEKSKGDINLVKQGCWSHIGDPQECHYEECVVTTTPPSIQNGTYRFCCCSTDLCNVNFTENFPPPDTTPLSPPHSFNRDET

Tests used:
Assay in all cases: SPR
[1] = target: Activin (UniProt P08476 311-426)
[2] = target: B3
[3] = target: T1, BMP-7 (UniProt P18075 293-431)
T1 sequence (looked up): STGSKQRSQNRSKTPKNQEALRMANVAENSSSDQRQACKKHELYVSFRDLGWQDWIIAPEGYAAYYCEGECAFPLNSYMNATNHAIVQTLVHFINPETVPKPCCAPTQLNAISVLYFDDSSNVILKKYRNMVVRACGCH

[4] = target: B7
[5] = target: B8
[6] = target: B6
[7] = target: B2
[8] = target: B5
[9] = target: B4
[10] = target: B9

Kd [1]: 5 µM
Kd [2]: 197 µM
Kd [3]: 59 µM
B1: Chimera BAB: BMPR-II ECD with the ActR-IIB A-loop (domain or fragment)
chain: ASQNQERLCAFKDPYQQDLGIGESRISHENGTILCSKGSTCYGLWEKSKGDINLVKQGCWDDFNCYDRQCVVTTTPPSIQNGTYRFCCCSTDLCNVNFTENFPPPDTTPLSPPHSFNRDET

Binder: B2
Kd [3]: 135 µM

Binder: B3
Kd [4]: 123 µM
Kd [5]: 175 µM
Kd [6]: 117 µM
Kd [7]: 221 µM
Kd [8]: 90 µM
Kd [9]: 136 µM
Kd [10]: 200 µM

Binder: B4
Kd [3]: 92 µM

Binder: B5
Kd [3]: 43 µM

Binder: B6
Kd [3]: 117 µM

Binder: B7
Kd [3]: 138 µM

Binder: B8
Kd [3]: 129 µM

Binder: B9
Kd [3]: 157 µM
